Experimental data as given in patent US8158585B2, “Cross-β structure comprising amyloid-binding proteins and methods for detection of the cross-β structure, for modulating cross-β structures fiber formation and modulating cross-β structure-mediated toxicity” (CrossBeta Biosciences B.V., priority 2002, dated 2012).

Legend:
[1] = biological target: T1, human amylin fragment hΔIAPP (Homo sapiens, UniProt P10997); assay: Dot blot: binding of FXII to hΔIAPP; settings: 2 nM FXII
T1 construct: purchased Pepscan, Inc. or peptide synthesis facility of the Netherlands Cancer Institute; host or cells: chemical synthesis
Procedure: (§1) The binding of human FXII (Calbiochem, La Jolla, Calif., USA, catalogue #233490) to amyloid (poly)peptides was tested. Prototype amyloid peptides human amyloid-β (1-40) (hAβ (1-40)) and human fibrin fragment α147-159 FP13, and glucose-6-phosphate glycated bovine albumin (albumin-advanced glycation end product (AGE)) and glucose-6-phosphate glycated human hemoglobin (Hb-AGE), all containing cross-β structure, as well as negative controls mouse A islet amyloid polypeptide (ΔmIAPP), albumin-control and Hb-control, all three lacking the amyloid-specific structure, were coated to ELISA plates and overlayed with a concentration series of human factor XII. Binding of FXII was detected using a rabbit polyclonal anti-FXII antibody (Calbiochem, La Jolla, Calif., USA, catalogue #233504) and peroxidase-labeled swine anti-rabbit IgG. Wells were coated in triplicate. The FXII binding buffer included 10 mM HEPES pH 7.3, 137 mM NaCl, 11 mM D-glucose, 4 mM KCl, 1 mg ml^−1 albumin, 50 μM ZnCl2, 0.02% (m/v) NaN3 and 10 mM ε-amino caproic acid (εACA). Lysine analogue εACA was added to avoid putative binding of FXII to cross-β structure via the FXII kringle domain. In addition, binding of FXII to hAβ (1-40) and the prototype amyloid human amylin fragment hΔIAPP was tested using dot blot analysis. […]

[2] = system: ΔmIAPP, albumin-control and Hb-control; assay: ELISA: binding of human FXII to negative controls
Procedure: as §1

hAβ (1-40) = biological target: T2, hAβ (1-40) (Homo sapiens, UniProt P05067); assay: Dot blot: binding of FXII to hAβ (1-40); settings: 2 nM FXII
T2 construct: Peptide Aβ (1-40), containing amino acids as present in the described human Alzheimer peptide; purchased Pepscan, Inc. or peptide synthesis facility of the Netherlands Cancer Institute; host or cells: chemical synthesis
Procedure: as §1

mΔIAPP [3] = biological target: T3, mΔIAPP (Mus musculus, UniProt P12968); assay: Dot blot: binding of FXII to mΔIAPP; settings: 2 nM FXII
T3 construct: purchased Pepscan, Inc. or peptide synthesis facility of the Netherlands Cancer Institute; host or cells: chemical synthesis
Procedure: as §1

[4] = biological target: T4, FXII binding to albumin-AGE (Bos taurus, UniProt P02769); assay: Competitive FXII - tPA ELISA on coated albumin-AGE; settings: 15 nM FXII; concentration series up to 150 times the kD
T4 construct: bovine serum albumin (fraction V, catalogue #A-7906); purchased Calbiochem (FXII); ICN or Sigma-Aldrich (albumin) 233490 (FXII); A-7906 (Sigma albumin)

albumin-g6p [5] = biological target: T5, albumin-g6p (Bos taurus, UniProt P02769); assay: Competitive binding of Thioflavin T and tPA to albumin-g6p (fluorescence, absorbance); parameters: species or system bovine; settings: increasing amounts of tPA
T5 construct: Bovine serum albumin (BSA) fraction V pH 7.0; host or cells: bovine serum, fraction V
Procedure: A solution of 430 nM albumin-g6p and 19 μM of Thioflavin T was incubated with increasing amounts of tPA, for one hour at room temperature. For blank readings, albumin-g6p was omitted. Samples were prepared in four-fold in 50 mM glycine-NaOH pH 9. Emission measurements were performed as described above.
Albumin-g6p (500 nM) and Thioflavin T (10 μM) were incubated with increasing amounts of tPA, in 50 mM glycine-NaOH pH 9, for one hour at room temperature. Absorbance measurements were performed at the albumin-g6p Thioflavin T absorbance maximum at 420 nm. Samples were prepared in four-fold. For blank readings, albumin-g6p was omitted in the solutions. Absorbance was read in a quartz cuvette on a Pharmacia Biotech Ultrospec 3000 UV/visible spectrophotometer (Cambridge, England).

mΔIAPP [6] = biological target: T3, mΔIAPP; assay: Amyloid ELISA with tPA F-EGF-GST: non-amyloid control; type: binding
Procedure: In order to define the affinity of the purified tPA F-EGF-GST recombinant protein, ELISAs were performed with immobilized amyloid (poly)peptides and non-amyloid control ΔmIAPP. Twenty-five μg ml^−1 of Aβ, FP13, IAPP or ΔmIAPP was immobilized on Exiqon peptide immobilizer plates. A concentration series of tPA F-EGF-GST in the presence of excess εACA was added to the wells and binding was assayed using anti-GST antibody Z-5. As a control, GST (Sigma-Aldrich, St. Louis, Mo., USA, catalogue #G-5663) was used at the same concentrations.

albumin-g6p [7] = biological target: T5, albumin-g6p; assay: ELISA: binding of tPA-F-GST and RPTPμ-GST to glycated albumin; parameters: species or system bovine; settings: in the presence of excess εACA
Procedure: (§2) Binding of tPA-F-GST and RPTPμ-GST to fibrous amyloids human Aβ (1-40) and albumin-[…] was assayed with an ELISA. In brief, human Aβ (1-40), albumin-[…], or buffer only, were coated on a peptide I Immobilizer or a protein I Immobilizer, respectively. Wells were incubated with the purified GST-tagged constructs or control medium and binding was detected using primary anti-GST monoclonal antibody 2F3 and RAMPO. The wells were also incubated with […] of tPA in the presence of 10 mM of εACA. Binding of tPA is independent of the lysyl binding site located at the kringle 2 domain. Binding of tPA was measured using primary antibody 374B and RAMPO. Experiments were performed in triplicate and blank readings of non-coated wells were substracted.

[8] = biological target: T6, FXII binding to hAβ (1-40) (Homo sapiens, UniProt P05067); assay: Competitive FXII - tPA ELISA on coated hAβ (1-40); settings: 2.5 nM FXII; concentration series up to 135 times the kD
T6 construct: Peptide Aβ (1-40), containing amino acids as present in the described human Alzheimer peptide; purchased Calbiochem (FXII); Pepscan or Netherlands Cancer Institute (peptide) 233490 (FXII)

[9] = system: anti-AGE1 binding to amyloid peptides (Aβ (1-40), IAPP); assay: Competitive ELISA: tPA and anti-AGE1 on immobilized Aβ (1-40) and IAPP; settings: 250 or 18 nM α-AGE1; 10 mM εACA
Procedure: (§3) For ELISAs, amyloid compounds were immobilized on Exiqon peptide or protein Immobilizers (Vedbaek, Denmark), as described before. Anti-AGE antibodies and commercially available anti-Aβ (1-42) H-43 (Santa Cruz Biotechnology, Santa Cruz, Calif., USA) were diluted in PBS with 0.1% v/v Tween 20. Rabbit anti-human vitronectin K9234 was a kind gift of Dr. H. de Boer (UMC Utrecht) and was used as a negative control. For ELISAs with mouse polyclonal anti-albumin-AGE/Aβ, control serum with antibody elicited against an unrelated protein was used. Binding of mouse polyclonal anti-albumin-AGE/Aβ was performed using a dilution series of serum in PBS/0.1% Tween 20. For competitive binding assays with IAPP, anti-AGE1 was pre-incubated with varying IAPP concentrations. The IAPP fibers were spun down and the supernatant was applied in triplicate to wells of an ELISA plate coated with Aβ. Competitive binding assays with multiligand cross-β structure binding serine protease tPA were performed in a slightly different way. Coated Aβ and IAPP are overlayed with an anti-AGE1 or anti-Aβ (1-42) H-43 concentration related to the kD, together with a concentration series of tPA. A 10^7-10^4 times molar excess of lysine analogue εACA (10 mM) was present in the binding buffer in order to avoid binding of tPA to lysine residues of Aβ and IAPP, which would be independent of the presence of amyloid structures.

Aβ (1-40) = Aβ (1-40) (Homo sapiens, UniProt P05067); assay: ELISA: binding of tPA-F-GST and RPTPμ-GST to human Aβ (1-40); parameters: Peptide Aβ (1-40), containing amino acids as present in the described human Alzheimer peptide; purchased Pepscan, Inc. (The Netherlands) or peptide synthesis facility at the Netherlands Cancer Institute; host or cells: synthetic peptide; settings: in the presence of excess εACA
Procedure: as §2

Aβ = biological target: T7, Aβ (Homo sapiens, UniProt P05067); assay: Solid-phase binding ELISA of tPA, plasminogen and plasmin to coated Aβ; settings: 50 mM ε-aminocaproic acid
T7 construct: Peptide Aβ (1-40), containing amino acids as present in the described human Alzheimer peptide; purchased Pepscan, Inc. or peptide synthesis facility of the Netherlands Cancer Institute; host or cells: chemical synthesis
Procedure: FIG. 3 is a set of graphs depicting binding of tPA, plasminogen and plasmin to Aβ. Aβ was coated onto plastic 96-well plates. Increasing concentrations of either (A) tPA or (B) plasmin(ogen) were allowed to bind to the immobilized peptide. After extensive washing, tPA and plasmin(ogen) binding was assessed by enzyme-linked immunosorbent assays using anti-tPA and anti-plasminogen antibodies. Binding of (C) tPA and (D) plasmin to Aβ in the presence of 50 mM ε-aminocaproic acid (ε-ACA) was assessed as in A and B.
To test whether tPA, plasminogen and plasmin bind Aβ, solid-phase binding assays were performed. Aβ was coated onto plastic 96-well plates and binding of the peptide to either plasmin(ogen) or to tPA was assessed by overlaying the coated peptide with increasing concentrations of either tPA, plasminogen or plasmin. Binding was assessed using specific antibodies to either plasmin(ogen) or to tPA by performing ELISA. […] However, activated plasminogen (plasmin) does bind to Aβ and does so with a kD of 47 nM. […] To test this, use was made of the lysine analogue ε-aminocaproic acid (εACA) and binding of plasmin and tPA to Aβ was tested in its presence. […] In contrast, εACA has no effect on the tPA-Aβ interaction (FIG. 3, Panel C). Thus, it was concluded that plasmin binds to free lysines that were generated during the incubation period, presumably via its lysine-binding Kringle domain(s). In line with this, the kD of plasminogen Kringle domain binding to free lysines in fibrin is similar to the kD for plasmin binding to Aβ.

[10] = biological target: T8, H-43 binding to immobilized IAPP (Homo sapiens, UniProt P10997); assay: Competitive ELISA: tPA and H-43 on immobilized IAPP; settings: 100 nM H-43, concentration series of tPA
T8 construct: purchased Pepscan, Inc. (The Netherlands) or peptide synthesis facility at the Netherlands Cancer Institute; host or cells: synthetic peptide
T8 sequence (P10997 34-70 limits assumed): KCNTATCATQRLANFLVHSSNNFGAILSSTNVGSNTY
Procedure: as §3

[11] = biological target: T9, tPA-mediated plasminogen activation (Homo sapiens, UniProt P00750); assay: Plasminogen activation assay; type: biochemical; settings: plasminogen 200 μg ml−1, tPA 200 pM, 5 μM co-factor; S-2251
T9 construct: purchased Boehringer-Ingelheim (Germany)
Procedure: Plasminogen (200 μg ml^−1) was incubated with tPA (200 pM) in the presence or the absence of a co-factor (5 μM of either endostatin, Aβ (1-40), or one the fibrin-derived peptides 85, 86 and 87). At the indicated time intervals, samples were taken and the reaction was stopped in a buffer containing 5 mM EDTA and 150 mM εACA. After collection of the samples, a chromogenic plasmin substrate S-2251 was added and plasmin activity was determined kinetically in a spectrophotometer at 37° C.

neuronal cell death = assay: Endostatin-induced cell death by methylene blue staining; type: cell-based; settings: precipitated form
Text: FIG. 6 is a set of graphs illustrating that endostatin can form fibers comprising cross-β structure and stimulates plasminogen activation. […] Aβ is shown for comparison. Panel D is an analysis of endostatin-induced cell death by methylene blue staining. […] Direct cell death, but not cell detachment, is protected in the presence of sufficient glucose. Buffer prec. indicates control buffer.

T5 sequence (P02769 25-607): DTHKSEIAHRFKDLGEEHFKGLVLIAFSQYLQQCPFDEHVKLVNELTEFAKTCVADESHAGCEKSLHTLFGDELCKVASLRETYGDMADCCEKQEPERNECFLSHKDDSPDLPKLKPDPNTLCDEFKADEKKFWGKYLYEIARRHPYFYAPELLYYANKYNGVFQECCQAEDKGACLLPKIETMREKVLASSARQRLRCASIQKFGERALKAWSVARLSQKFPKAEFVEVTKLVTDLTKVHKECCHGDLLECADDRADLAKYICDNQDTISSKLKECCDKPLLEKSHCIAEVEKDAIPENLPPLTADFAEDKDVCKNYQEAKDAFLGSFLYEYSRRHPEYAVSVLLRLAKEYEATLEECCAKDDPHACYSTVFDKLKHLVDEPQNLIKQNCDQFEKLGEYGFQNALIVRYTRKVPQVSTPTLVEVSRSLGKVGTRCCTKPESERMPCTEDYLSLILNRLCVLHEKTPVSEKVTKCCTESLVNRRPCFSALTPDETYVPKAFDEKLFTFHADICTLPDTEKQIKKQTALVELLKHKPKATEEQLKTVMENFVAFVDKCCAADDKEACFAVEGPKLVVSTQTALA
T4 sequence (P02769 25-607): as above
T9 sequence (P00750 36-562): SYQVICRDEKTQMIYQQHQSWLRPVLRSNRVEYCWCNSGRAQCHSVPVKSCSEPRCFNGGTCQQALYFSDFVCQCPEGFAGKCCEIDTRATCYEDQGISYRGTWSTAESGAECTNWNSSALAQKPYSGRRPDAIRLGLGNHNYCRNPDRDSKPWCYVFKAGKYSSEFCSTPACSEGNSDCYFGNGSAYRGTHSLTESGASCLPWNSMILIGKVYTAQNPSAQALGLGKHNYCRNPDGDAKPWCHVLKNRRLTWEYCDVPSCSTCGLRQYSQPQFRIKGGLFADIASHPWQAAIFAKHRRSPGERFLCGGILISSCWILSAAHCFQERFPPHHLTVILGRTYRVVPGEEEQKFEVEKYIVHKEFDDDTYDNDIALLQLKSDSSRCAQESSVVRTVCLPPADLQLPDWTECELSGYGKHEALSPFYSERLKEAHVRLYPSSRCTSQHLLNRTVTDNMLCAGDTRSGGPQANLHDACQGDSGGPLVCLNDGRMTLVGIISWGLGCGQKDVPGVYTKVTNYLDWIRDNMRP
Chain of Aβ (1-40) (P05067 672-711): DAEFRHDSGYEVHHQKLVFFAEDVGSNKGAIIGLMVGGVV
T2 sequence (P05067 672-711): as above
T6 sequence (P05067 672-711): as above
T7 sequence (P05067 672-711): as above

FXII: human FXII (Calbiochem, catalogue #233490)
binding to spotted hΔIAPP [1]: specifically bound
binding to negative controls ΔmIAPP, albumin-control and Hb-control [2]: does not bind
binding to spotted hAβ (1-40) (hAβ (1-40)): specifically bound
binding to spotted mΔIAPP (mΔIAPP [3]): No binding

tPA: Alteplase (recombinant tissue-type plasminogen activator, tPA) from Boehringer-Ingelheim
inhibition of FXII binding to albumin-AGE [4]: effectively abolished
competition with binding of Thioflavin T to glycated albumin (albumin-g6p [5]): competed
binding to non-amyloid mΔIAPP (mΔIAPP [6]): No binding
binding of control tPA to albumin-g6p (albumin-g6p [7]): bound
inhibition of FXII binding to hAβ (1-40) [8]: efficiently inhibits
inhibition of anti-AGE1 binding to amyloid peptides [9]: inhibited
binding of control tPA to human Aβ (1-40) (Aβ (1-40)): bound
binding to Aβ in the presence of εACA (Aβ): no effect
inhibition of H-43 binding to immobilized IAPP [10]: effectively diminished

endostatin
stimulation of tPA-mediated plasmin formation [11]: stimulating activity
induction of cell death (neuronal cell death): capable of efficiently inducing cell death
